Our source for the tissue uptake values is PMC12435366, “Maleic anhydride derived diphosphines: adaptable chelators for receptor-targeted ^99mTc, ^64Cu and ^188Re radiotracers” (Chemical Science, 2025).

The data set is described as follows: in vivo. Details: species or system mice. Conditions: male, athymic nude (Crl:NU(NCr)-Foxn1nu), mouse, iv, total radioactivity. The protocol:
The biodistribution of [^99mTcO2(DP^An-PSMAt)2]^+ and [^99mTcO2(DP^MEP-PSMAt)2]^+ was studied using SPECT/CT imaging and ex vivo biodistribution methods. In these studies, [^99mTcO2(DP^An-PSMAt)2]^+ and [^99mTcO2(DP^MEP-PSMAt)2]^+ were used directly from kit-based formulations, without further purification, mimicking procedures used in clinical radiopharmacies and nuclear medicine departments. Mice were injected with [^99mTcO2(DP^An-PSMAt)2]^+ or [^99mTcO2(DP^MEP-PSMAt)2]^+ (4–5 MBq), containing 3 μg (2.6 nmol) of DP^An-PSMAt or 3.5 μg (2.6 nmol) of (DP^MEP-PSMAt) via the tail-vein, and culled 2 h post-injection, followed by dissection, organ/tissue weighing and counting.
The biodistribution of [^99mTcO2(DP^An-PSMAt)2]^+ and [^99mTcO2(DP^MEP-PSMAt)2]^+ was further studied in (i) male SCID/Beige mice bearing DU145-PSMA+ prostate cancer xenografts (Fig. 8) and (ii) male nude mice bearing PSMA-expressing LNCaP prostate cancer xenografts (see SI). […]
4.10 In vivo imaging and biodistribution (DU145-PSMA+ and LNCaP)
Preparation of tumour-bearing mice: All animal experiments were ethically reviewed by an Animal Welfare & Ethical Review Board at either King’s College London or Bart’s Cancer Institute and carried out in accordance with the Animals (Scientific Procedures) Act 1986 UK Home Office regulations governing animal experimentation. Subcutaneous prostate cancer xenografts were produced in SCID/beige mice (male, 7–12 weeks old) by injecting 4 × 10^6 DU145-PSMA+ or DU145 cells suspended in PBS (100 μL) on the right shoulder. Imaging and biodistribution studies were performed once a tumour had reached 5–10 mm in diameter (3–4 weeks after injection). Subcutaneous LNCaP prostate cancer xenografts were produced in athymic nude (Crl:NU(NCr)-Foxn1nu) mice (male, 6–7 weeks old) by injecting 5 × 10^6 LNCaP cells suspended in PBS:matrigel (1:1, 200 μL) on the right flank.
Biodistribution studies using 99mTc radiotracers were performed once a tumour had reached 150– 300 mm3 in volume (2–7 weeks after injection).
SCID/beige mice bearing DU145-PSMA+ prostate cancer tumour xenografts
SPECT/CT scanning and biodistribution studies: The 99mTc radiotracers (3.9–4.5 MBq, 3 mice per group, containing DPAn-PSMAt = 3.0 µg or DPMEP-PSMAt = 3.5 µg) were administered via tail vein injection under isoflurane anaesthesia. […]
in helical scanning mode). At 2 h post-injection, the animals were euthanized by cervical dislocation, organs/tissues harvested and weighed, and radioactivity counted using a gamma […]
ii. […] After scanning, the organs/tissues were harvested, weighed and radioactivity counted […]
Urine was collected and directly analysed by reverse-phase radio-HPLC (method 2). Data were analysed in GraphPad Prism 9 (version 9.1.1) and expressed as mean ± standard deviation (SD). […]

One may read the tissue uptake as the percentage of the injected dose found per gram of tissue. In the case of `COCCOc1ccc(P(/C(C(=O)O)=C(/C(=O)NCCOCCOCCOCCOCCC(=O)NCCCC[C@H](NC(=O)N[C@@H](CCC(=O)O)C(=O)O)C(=O)O)P(c2ccc(OCCOC)cc2)c2ccc(OCCOC)cc2)c2ccc(OCCOC)cc2)cc1` [[^99mTcO2(DP^MEP-PSMAt)2]^+, metal not drawn], the tissue uptake at 2 h stood at 46.4 ± 23.2 %ID/g (Kidney) and 7.38 ± 3.98 %ID/g (Liver).

For `COc1ccc(P(/C(C(=O)O)=C(/C(=O)NCCOCCOCCOCCOCCC(=O)NCCCC[C@H](NC(=O)N[C@@H](CCC(=O)O)C(=O)O)C(=O)O)P(c2ccc(OC)cc2)c2ccc(OC)cc2)c2ccc(OC)cc2)cc1` [[^99mTcO2(DP^An-PSMAt)2]^+, metal not drawn], the tissue uptake at 2 h was determined as 87.6 ± 13.3 %ID/g (Kidney) and 0.9 ± 0.15 %ID/g (Liver).
